34 sequences from the NTF2 design screens of Basanta et al. (2020) can be followed below.

The nature of the data set: protease stability score; higher = more stable; yeast display proteolysis, trypsin and chymotrypsin.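 Also: relative to predicted unfolded state with 0 unfolded-like and 1 meaning tenfold more protease.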
Take “SEEEKEAQHLLELENDARRTGDEDFSREMVDPNVKIDINGRDLHGWDVAEELMRQADHVHHEHIRQVEVQGDKLIVDMEINGHINGKSFDIKIHLFIWKYNGKWFVRKIDVK”: the protease stability score came to 1.44.

For the sequence “SEEEKEARESIHRFEAALKTGNEESLFELLDPHVRIDVNGQELHGWKEWKHIVHENKKRVKGARFRIHHIEIINGRIHLDGEVSINGKDIRTEYIIEKIDGVWRLTEVIIR”, the protease stability score was determined as 1.28.

“SEEEKEARRILTHFREVLHTGDEHALLELMDPNVRFILHDENHTVENHGMENMVTSLRKFGFDVIKRVHDKEHHLQGDKIKFHVETLGEINGREFEVEVQIRLYVVDGVLKWSEIIIH” returned a protease stability score of 1.1.

“SEEEKEDWEWMEIFYDALHTGDEKLIRDNADPNVKFRQGDYHSVGREEYIRKIDELRRRLGITKIRLEIDHVEVINGRSNVDTTIHVNGREIRSTLHVQVVNGRIKEIEIHLR”: the protease stability score amounted to 1.04.

“SEEEKEIKEILERLIRSLLTGDEQELAKMADPNVRFNFQVGNKKYTLHGREHLRRHITFVFEYLGFDHITIQDSHYQGDKMTVHVELRVNGRRHEIREHWLVVDGRIKEVHVEIH” displayed a protease stability score of 2.32.

Turning to “SEEEKELEEALKIQEEFWRTGDEHSLRELADPHARVHIDGRDLHGREFWSMLSNQLRIEHIEVKSVELVDGRLEADVHVTGRYNGRDVKTRMRLEIVKINGVWYLESTEIN”, the protease stability score was 0.407.

Sequence “SEEEKELKTLVEELWHAWETGDEDFIHKYMDPHARLHIGDKDHHGREEIRESLRQHREHLRIEHVHRHHVKLVDGRIETHGHILGHIGDKRFETEMIIIIIVINGRIRSMKFDYR” came in with a protease stability score of 1.03.

“SEEEKELREIMKVFKDAFLTGNEDLLRQLMDPHVRFHIGDKKNHGWEALHEYLLRIDHLDDLHSHLTEVHIQGDKVKIDGHLHMVERYGDFRFEREIRVHIVIEKINGRWIIEEVHFI”: the protease stability score came to 1.35.

Turning to “SEEEKELRFVYDLLWHLLKTGDEEITRELADPRVRIDIDGKEWHGRDELARLFDRLHRELGYTVHRTRHHRHDFINGQWHEDGETKGVIGDKEFETHVKIIIIVINGRLKEVIFHYH”, the protease stability score was determined as 1.16.

Sequence “SEEEKEMEDFLREFEKNLRTGDEEQIRRLADPHVRMEVNGVEHIGRKHVSRFWYHLVRRADHIHIEVEDMHLVGEKMELIGILRLRVNGRDLTHHHRLIVDKIDGRWFLRESRIH” had a protease stability score of 1.73.

The sequence “SEEEKEMHHIARLFFELWLTGDEETHQRLLDPDAKHSFNGVILHGRDEMIRYWRQFLEEIRLRSIEIRRITSVGDKVHVDSHVDGEVNGRRIVTREYIELEVVDGRWKRVKLHIK” registered a protease stability score of 1.38.

“SEEEKESEDSMRILEHYFHTGNEESLLKLADPHVRSEINGKIHHGMDLHNEIWKHFVQQFKGARPTSLNFKDVEIQGNKAEFHIELVLTIGNYSIHLEMHIFNEKVDGRWLIRSTYIR” gave a protease stability score of 1.08.

For “SEEEKETEHVLRLFLEIFHTGDWKTLHELFDPHVRLNVGDKHWIGRENVVEQIRHFLERFKNARFHIHRIHIVGDFNDVRTEITINGRTHDTRLWLQVIDGRIESMEIKMN”, the protease stability score is 2.44.

For the sequence “SEEEKETRKNLHEFLESIITGDEDHLVNMMDPHARIEVGDWELVGRHKFHEFASKVKNLKLHIRNTEVYGDKVHIDSEINFNGQRRDMVVHAEKINGKWILKHTRYQ”, the protease stability score was 1.17.

“SEEEKEVKEHLKIIHDVIRTGNEHDIKELMDPNMLLVFNGQKHIGRDHWEELLKKLGADHVHLHIRSFTIINGQARLETEVEWRAENRTIRRETEIVTDKINGRWIIHTIIFR” yielded a protease stability score of 1.5.

Take “SEEEKEVQEYLERSIKDIRTGDEDELRRQLDPNYKLDVNGQKHIGMELWLKILSREVKEIRIDHVERHIEVINGRIDVKGELILNFNGREFRHHFEIHATKFNGRWVVDSMRVE”: the protease stability score is 1.15.

“SEEEKEYEHWMRLYLHWRLTGDEEAEKRNADPNTRVEFNGKELHGMEVVSEFIIKLRNEMRFEFLEIDDMRVIDGVSHFDVTVDGVIDGKRVRLTLHIILIVINGKIHHIQEEWK” displayed a protease stability score of 1.43.

On to “SEEEKFAERFIRLFMEALETGDERVLEELLDPNVRVEVNGREYHGRDVFTRLVREWRIDHLDTHTHRIDSQGDKVNADTRVRFHHKVGDKVHDTEMHVILHSEKFNGRWHMTEIIIR”, for which the protease stability score is 1.34.

Consider “SEEEKHAHEMVRIFLHILKTGDWRTLEKLLDPDVRMSLDINGREHHQVGREEVLKAFIRFLDEWRMDDLHLHDVTIQGDKAYLETEVHITFNGQRHHTHLEIEIYVINGKIKSIRLTIR”, for which the protease stability score is 2.36.

For “SEEEKHFEDALERWIRTTDTGDETKLIELMDPHVKVDINGQEFHGWKIVFRFMHHLIRRIDHIIIEVKHLRVYDGRVELDGIIRVRFDGRQMEYNSRFIALKFNGVWLLHSMHFH”, the protease stability score stood at 1.87.

Sequence “SEEEKHIIELFEIWLEAIRTGDENLLLKLADPHYRVIIDVGNKHIHRHGWKEFMEWLRHFTREMRIRHLTLRDYRAVNGVFHADTESVEEIGEFELRTRMHIVLVIINGVFHSVRHKIE” had a protease stability score of 1.23.

With “SEEEKHLEHMARMMVEALMTGDEKLLNHLLDPNVRVEHSINGVEITDHGWHLYVKWVRDLGIDHIYFKDMHHQGNKTHLNIEIEINGKHIETRLLLVIVNGRIHIIKHEIK”, the protease stability score is 2.08.

“SEEEKHLRELSEHFIKLFLTGNEEELVNNADPHVQLHIDINGKKYHYHGREEFRKWAEERSEKIKNAKIILDHVEIQGEKLIIDTTWHFDGRNFRSKIKIKVFDGVLKEIHIEIR” had a protease stability score of 2.1.

With “SEEEKHMHKMHELRNKRTKTGDEHWFEKLADPHYRVEIGDKELIGWEYLVRVRREFGIDHLETVHIDSTEIQGEKVIEHVTIHGEFDGVRNDLKVELIVIKFNGRWVMHSTKVK”, the protease stability score stood at 0.761.

Take “SEEEKHSHKAVEIITELLKTGDWHEILKNADPTTKSDFNGVELHGWEALQSILKFMGIDHVELKSIDVFNGRLTVHRNMHINGREHHLIIIALKVNGKWVLESMEVH”: the protease stability score amounted to 1.84.

For the sequence “SEEEKHTREMSEMLLRTWETGDEEEYEHLADPHVRIDFNGKHYHGREEAVKLLRWLIEELGADHRTIHREEVQGEKVRLFTRVNVNGRDLRLIIRFVVINGRLTIMKIEIHTE”, the protease stability score was 1.26.

Regarding “SEEEKHVHRFLSEWTRSLKTGDEQRIVRLLDPTARLFFEGREYHGMETIAHQIVHDIRHHGFTLEVEIQDFHVQGDKAEHDGILIVKVDGKEIHRKLILVVTKIDGRWFLSEVIIK”, the protease stability score is 0.923.

In turn, “SEEEKHVIKMAEILLKSVLTGDWDKIKKMLDPNVKFHFHAENRHEEDHGMERVMDWMIKVRERFDVLEIEVTNSDVYGDKAVVDGRLINIIGDKRIETRVIIIIVVVDGRIHSIYFVIK” registered a protease stability score of 2.54.

The sequence “SEEEKHVTSMMELWIHYIITGDEEFFLKLADPHTRFEIGDYENHGRDAVKWHRDHLGLDNVHSRIHIKELRAVGDKVHSHTHLVIHIGDKTIRMDTKVHIVYINGRITSIIVEIS” registered a protease stability score of 1.31.

Take “SEEEKHWEDLVEHLHQIWLTGDEDTLRHRLDPNMRMDIDGKELHGRESIIEEIRRLGVDHVETKRKHSQGDKAHFDLIIRIDGKEHKMEIVIVVVNGKLKEVVLRRK”: the protease stability score came out at 1.1.

“SEEEKHWRKVINLLRRWHLTGDEHNLLELFDPNYRLHQGDKEIHGMELYIEIFERELKKVPNLKINFDSKHIEVQGEKARAETELDVNIDGRRIEFETRLYSIKFNGKWFVHSMEVK” displayed a protease stability score of 0.553.

With “SEEEKIAEDLAREIEEDWLTGNEEYIMHLADPNVKSHINIDGKRIDTHGMEELTHWLSRYPNVRIEPKRMDVQGEKITLDFELNIGDKRVRVILYHIIINGRIKEIRIIIHHV”, the protease stability score was 0.995.

“SEEEKIFEMAIKLMRHTLQTGDESTLHRLLDPHVRVVIGDKTYVGREATEFLLTRIDHIHDVEIHEVELINGRVNMHGIVDGTIGDKRVHVESNWVASKYDGRWHLKSISFH” gave a protease stability score of 1.29.

“SEEEKILDDILKLFLDDVRTGNEDSLHRLADPHVRQDYNGVELHGMELVVHWLVELRVEDWRHKDSDSAENRVHLNGIVDGNINGKKQRREIILVIRKVDGRWFLEHNIVI” showed a protease stability score of 1.23.
